Source: PMC4556315, “Structure of the JmjC domain-containing protein NO66 complexed with ribosomal protein Rpl8” (Acta Crystallographica Section D: Biological Crystallography, 2015)

How the values were obtained:
[1] = molecular target: T1, C-terminal fragment of wild-type human NO66 (NO66^176–C) (human, UniProt Q9H6W3 176-641); assay: crystal structure; NO66^176–C with Ni2+, NOG and Rpl8^204–224 peptide (protein:NOG:Ni2+:peptide 1:4:10:15); sitting drop, 295 K, 0.1 M imidazole pH 6.5, 0.5 M sodium acetate; 2.2 Å; details: both partners purified
T1 construct: Cloned in pET-28a(+); Tetramer in the crystal; also called Nucleolar protein 66; wild-type NO66; source: E. coli Rosetta 2 (DE3), purified (Ni-NTA, tag removed by TEV protease, Superdex 200); not shown: His-SUMO, N-terminal, cleaved

[2] = molecular target: the molecule itself; assay: SEC; Superdex 200 10/300, 20 mM Tris-HCl pH 7.5, 200 mM NaCl; molecular weight estimated from the elution volume
[3] = molecular target: T1, C-terminal fragment of wild-type human …; assay: pull-down; GST-Rpl8 fragments immobilised on GST beads from E. coli lysate and washed, incubated with purified NO66^176–C at 277 K for 1 h; buffer B (50 mM HEPES pH 7.5, 300 mM NaCl, 0.1% Triton X-100); SDS-PAGE; details: both partners purified

B1: Rpl8^204–224 peptide (human ribosomal protein L8) (peptide, UniProt P62917 204-224, looked up)
peptide: MNPVEHPFGGGNHQHIGKPST
notes: Only residues 212–222 are visible in the structure; also called Rpl8 peptide; source: synthetic peptide
- binding result [1]: binds

B2: NO66^176–C mutant M3 (F450A/R452A/P455A) (enzyme, human, UniProt Q9H6W3 176-641, looked up)
chain: GGEPAWDSPLRRVLAELNRIPSSRRRAARLFEWLIAPMPPDHFYRRLWEREAVLVRRQDHTYYQGLFSTADLDSMLRNEEVQFGQHLDAARYINGRRETLNPPGRALPAAAWSLYQAGCSLRLLCPQAFSTTVWQFLAVLQEQFGSMAGSNVYLTPPNSQGFAPHYDDIEAFVLQLEGRKLWRVYRPRVPTEELALTSSPNFSQDDLGEPVLQTVLEPGDLLYFPRGFIHQAECQDGVHSLHLTLSTYQRNTWGDFLEAILPLAVQAAMEENVEARAGLARDFMDYMGAQHSDSKDPRRTAFMEKVRVLVARLGHFAPVDAVADQRAKDFIHDSLPPVLTDRERALSVYGLPIRWEAGEPVNVGAQLTTETEVHMLQDGIARLVGEGGHLFLYYTVENSRVYHLEEPKCLEIYPQQADAMELLLGSYPEFVRVGDLPCDSVEDQLSLATTLYDKGLLLTKMPLALN
notes: source: E. coli Rosetta 2 (DE3), purified (Ni-NTA, tag removed by TEV protease, Superdex 200); not shown: His-SUMO, N-terminal, cleaved
- stoichiometry N [2]: 2

B3: GST-Rpl8 fragment 193–224 (domain or fragment)
chain: not shown
notes: Cloned in pGEX-6P-1
- binding result [3]: binds
